The target in this data set is human alpha thrombin (human, UniProt P00734;P00734 328-363;364-622). In words: electrochemical aptamer sensor (square-wave voltammetry); 1-500 nM thrombin; 100 Hz optimal; concentration-dependent peak current decrease; LOD 14.7 nM (not a Kd); Electrodes soaked in PBS before measurement (137 mM NaCl, 2.7 mM KCl, 10 mM Na2HPO4, 1.8 mM KH2PO4, pH 7.4); thrombin assay buffer and temperature not given in.

Take TAAGTTCATCTCCCCGGTTGGTGTGGTTGGT (structured_DNA, 5' SH-(CH2)6; 3' amine conjugated to arPES) [PES-modified TBA (arPES-TBA)]: the binding result is “binds”.

(Values after paper PMC8914840.)
